Source: patent publication US9307782B2, “Mannanase produced from Cellulosimicrobium sp. strain HY-13” (Korea Research Institute of Bioscience and Biotechnology, priority 2011, dated 2016)
Like-named read-outs stand apart in the source and are kept apart here. Marks after values point to notes of the source that are not given here.

Tests used:
[1] = Specific activity of mannanase (DNS reducing sugar assay); type: biochemical; settings: for Specific activity: pH 6.0, 50° C., 15 minutes
Procedure: To compare the mannanase activity to different matrixes, locust bean gum, ivory nut mannan and guar gum were used as matrixes and the activity of the purified mannanase to those matrixes were investigated.
(§1) The activity of β-1,4-mannanase was investigated by measuring the reduced amount of glucose isolated from locust bean gum using 3,5-dinitrosalicylic acid (DNS). At this time, D-mannose was used as a standard material. 0.5 Ml of a standard mixture composed of 0.5% locust bean gum was mixed with 0.05 Ml of an enzyme aqueous solution, followed by inducing biodegradation reaction in 50 mM sodium phosphate buffer (pH 6.0) at 50° C. for 15 minutes. The activity of the recombinated mannanase (1 IU) to the mannan substrate was defined as the amount of the protein necessary for the secretion of 1 μmol reducing sugar under the standard analysis condition. Chromogenic PNP-sugar derivative was used to measure another degrading activity of the said recombinated enzyme. The enzyme activity of the recombinated mannanase to the chromogenic substrate was measured under the same conditions as set for the analysis of β-1,4-mannanase activity. The activity of the recombinated mannanase (1 IU) to the PNP-sugar derivative was defined as the amount of the protein necessary for the production of 1 μmol PNP under the standard analysis condition.

[2] = type: physicochemical
Procedure: To determine the optimum reaction temperature of the mannanase, mannanase activity was measured at different temperatures of 37, 40, 45, 50, 55, 60, 65, and 70° C. To measure thermo-stability, the mannanase was heat-treated at the said temperatures for 15, 30, and 60 minutes and then the remained activity was measured. To determine the optimum reaction pH, the mannanase was treated respectively with 50 mM of sodium citrate buffer (pH 4.0˜5.5), phosphate buffer (pH 5.5˜7.5), Tris-HCl buffer (pH 7.5˜9.0), and glycine-NaOH buffer (pH 9.0˜10.0) in pH range of 4.0˜10.0 at 55° C. for 15 minutes, followed by measurement of enzyme reaction.

[3] = toward locust bean gum; comparison enzymes of other strains; cited from earlier work
[4] = Analysis of degradation product (HPLC, LC-MS/MS); type: biochemical; settings: substrate Ivory nut mannan; LC area %
Procedure: […] HPLC (high performance liquid chromatography) was performed by using Finnigan Surveyor™ Modular HPLC systems (Thermo Electron Co.) equipped with Asahipak NH2P-50 2D column (5 μm, 2.0×150 mm, Shodex) ran by Xcalibur software (version 1.3 SP2, Thermo Electron Co.). Elution buffer A (0.05% pomalus acid/sterilized water) and elution buffer B (acetonitrile and methanol (7:3) containing 0.05% pomalus acid) were used as moving phases. LC-MS/MS (liquid chromatography/tandem mass spectrometry) was performed by using Finnigan LCQ Advantage MAX ion trap mass spectrometer (Thermo Electron Co.).

[5] = Specific activity of mannanase (substrate specificity); type: biochemical; settings: substrate Birchwood xylan
From the text: as §1, with “0.5 Ml of a standard mixture composed of 0.5% locust bean gum was mixed with 0.05 Ml of an enzyme aqueous solution, followed by inducing biodegradation reaction in 50 mM sodium phosphate buffer (pH 6.0) at 50° C. for 15 minutes.” left out, “Chromogenic PNP-sugar derivative was used to measure another degrading activity of the said recombinated enzyme.” left out

[6] = Analysis of degradation product (HPLC, LC-MS/MS); type: biochemical
Procedure: Mannooligomer (M2˜M5, 1 mg/100 μl each) and locust bean gum (1.4 mg/100 μl) were reacted in 50 mM sodium phosphate buffer (pH 6.0) containing 1 μg of the recombinant mannanase at 30° C. for 12 hours, followed by investigation of the hydrolysate. HPLC (high performance liquid chromatography) was performed by using Finnigan Surveyor™ Modular HPLC systems (Thermo Electron Co.) equipped with Asahipak NH2P-50 2D column (5 μm, 2.0×150 mm, Shodex) ran by Xcalibur software (version 1.3 SP2, Thermo Electron Co.). Elution buffer A (0.05% pomalus acid/sterilized water) and elution buffer B (acetonitrile and methanol (7:3) containing 0.05% pomalus acid) were used as moving phases. LC-MS/MS (liquid chromatography/tandem mass spectrometry) was performed by using Finnigan LCQ Advantage MAX ion trap mass spectrometer (Thermo Electron Co.).

[7] = Binding of mannanase to insoluble polymer; settings: enzyme 5.0 IU/Ml, on ice two hours, pH 6.0
Procedure: The mannanase of the present invention contains two family 10 CBMs at C-terminal, which plays an important role in enzyme-substrate interaction. As the mannanase was expected to bind to various carbohydrate polymers, hydrophobic materials having microstructures including polysaccharide, poly(3HB) granules, and lignin were used as substrates to investigate enzyme-substrate binding activity of the mannanase.
Before analyzing the binding activity, insoluble substrates were washed with 50 mM sodium phosphate buffer (pH 6.0) 5 times, followed by measuring the binding capacity of the enzyme to the hydrophobic materials. Particularly, the enzyme diluted at the concentration of 5.0 IU/Ml was put on ice for two hours with the equal volume of a substrate polymer. The mixture was stirred every 5 minute. The mixture was centrifuged at 12,000×g to obtain supernatant. Then, the activity of β-1,4-mannanase thereof was measured.

[8] = Specific activity of mannanase (substrate specificity); type: biochemical
Procedure: as §1

[9] = substrate Locust bean gum, 1 μg recombinant mannanase, pH 6.0, 30° C., 12 hours, LC area %

B1: Mannanase: Wild type β-1,4-mannanase of Bacillus subtilis WY34 (protein)
chain: MRRLFAIVLGAVLALLAVPALAQGASVASDGFSVQDGRIYDANGNRFVPVGVNHAHAWYPSQTQSFADIRAAGANTVRVVLSGGRYGTSSAADVSAVVERCKQNQLVCILENHDTTGYGEDGSARSLASAAQYWTSIASVLRGQERYVMINIGNEPFGNSGFQSWTTDTIAAIRTLRAAGLDHTLVVDAPNWGQDWSFTMRDNAPTVAAADGNVVFSVHMYGVFDTGAEVRAYLDSFTSRGLPIMVGEFGDNHSDGNPDEATIMSYTRSQGIGMLGWSWSGNGGGVEYLDMVNGFSASSLTPWGQRFVHGADGLRARNAPAASVYGGDGGDGDGGAGTAPNGYPYCASASSDPDGDGWGWESSASCVVRGSSADTGSGGGSGSGSTAPNGYPYCASASSDPDGDGWGWESSASCVVRGSSADR
modifications: cellulosimicrobium
notes: Wild type β-1,4-mannanase of Bacillus subtilis WY34
specific activity to ivory nut mannan relative to guar gum ([1]; ratio ivory nut mannan / guar gum): 15.2 fold
specific activity to ivory nut mannan relative to locust bean gum ([1]; ratio ivory nut mannan / locust bean gum): 1.7 fold
Specific activity ([1]; toward guar gum): 967 IU/mg
Specific activity ([1]; toward insoluble ivory nut mannan): 14,711 IU/mg
Specific activity ([1]; toward locust bean gum): 8,498 IU/mg
Half life of the enzyme [2]: 15 min
Thermolability ([2]; exposed on the temperature of 55° C.): rapidly increased
Specific activity [3]: 8,302^d IU/mg
Composition (%) of products formed by hydrolysis reaction: M4 [4]: 25.2%
degradation of carbohydrate [5]: not degraded
Composition (%) of products formed by hydrolysis reaction: M1 [6, 9]: 1.1%
Composition (%) of products formed by hydrolysis reaction: M2 [6, 9]: 6.4%
Composition (%) of products formed by hydrolysis reaction: M3 [6, 9]: 1.5%
Composition (%) of products formed by hydrolysis reaction: M4 [6, 9]: 7.4%
Composition (%) of products formed by hydrolysis reaction: M5 [6, 9]: 44.2%
degradation of substrate ([6]; substrate M2 (printed N2)): not degraded
hydrolysis products: mannooligomer (at least M6) ([6]; substrate locust bean gum, sum of M6 and larger): 39.4%
binding to insoluble polymer ([7]; Avicel): strongly conjugated
binding to insoluble polymer ([7]; chitin): strongly conjugated
binding to insoluble polymer ([7]; chitosan): strongly conjugated
binding to insoluble polymer ([7]; curdlan): not conjugated
binding to insoluble polymer ([7]; insoluble ivory nut mannan): strongly conjugated
binding to insoluble polymer ([7]; insoluble oat spelt xylan): not conjugated
binding to insoluble polymer ([7]; lignin): not conjugated
binding to insoluble polymer ([7]; poly(3HB) granules): not conjugated
degradation of carbohydrate ([8]; substrate carboxymethylcellulose): not degraded
degradation of carbohydrate ([8]; substrate pectin): not degraded
degradation of carbohydrate ([8]; substrate soluble starch): not degraded
